According to patent US20200040101A1 (ASKGENE PHARMA, published 2020):
One block for each binder: values may come before it.

Legend:
[1] = biological target: T1, human Claudin 18.2 (CLDN18.2) expressed on cells (human, UniProt P56856-2 1-261); assay: FACS, hybridoma subclone supernatant, CLDN18.2 and CLDN18.1 cells in one plot
T1 construct: whole, on cells; also called CLD18.2; CLD18A2

Claudin-1 = biological target: T2, Claudin-1; assay: FACS, transfected HEK 293 cells
T2 construct: expressed on transiently transfected HEK 293 cells

Claudin-2 = biological target: T3, Claudin-2; assay: FACS, transfected HEK 293 cells
T3 construct: expressed on transiently transfected HEK 293 cells; the sheet prints only the number after Claudin-1
T3 sequence (P57739 whole entry, species assumed, looked up): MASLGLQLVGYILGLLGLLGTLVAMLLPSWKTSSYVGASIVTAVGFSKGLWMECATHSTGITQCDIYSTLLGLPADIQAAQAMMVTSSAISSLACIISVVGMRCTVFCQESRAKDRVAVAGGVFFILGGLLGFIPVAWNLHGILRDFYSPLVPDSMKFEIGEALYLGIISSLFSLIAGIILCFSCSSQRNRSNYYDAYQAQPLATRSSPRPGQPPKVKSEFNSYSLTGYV

Claudin-3 = biological target: T4, Claudin-3; assay: FACS, transfected HEK 293 cells
T4 construct: expressed on transiently transfected HEK 293 cells; the sheet prints only the number after Claudin-1

Claudin-4 = biological target: T5, Claudin-4; assay: FACS, transfected HEK 293 cells
T5 construct: expressed on transiently transfected HEK 293 cells; the sheet prints only the number after Claudin-1

Claudin-5 = biological target: T6, Claudin-5; assay: FACS, transfected HEK 293 cells
T6 construct: expressed on transiently transfected HEK 293 cells; the sheet prints only the number after Claudin-1
T6 sequence (O00501 whole entry, species assumed, looked up): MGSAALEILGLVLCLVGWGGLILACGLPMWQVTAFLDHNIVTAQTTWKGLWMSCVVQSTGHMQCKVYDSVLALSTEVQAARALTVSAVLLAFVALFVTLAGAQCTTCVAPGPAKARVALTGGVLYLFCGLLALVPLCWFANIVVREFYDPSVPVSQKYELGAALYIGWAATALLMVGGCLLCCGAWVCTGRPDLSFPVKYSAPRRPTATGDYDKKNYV

Claudin-8 = biological target: T7, Claudin-8; assay: FACS, transfected HEK 293 cells
T7 construct: expressed on transiently transfected HEK 293 cells; the sheet prints only the number after Claudin-1

Claudin-9 = biological target: T8, Claudin-9; assay: FACS, transfected HEK 293 cells
T8 construct: expressed on transiently transfected HEK 293 cells; the sheet prints only the number after Claudin-1

Claudin-10 = biological target: T9, Claudin-10; assay: FACS, transfected HEK 293 cells
T9 construct: expressed on transiently transfected HEK 293 cells; the sheet prints only the number after Claudin-1
T9 sequence (P78369 1-228, species assumed, looked up): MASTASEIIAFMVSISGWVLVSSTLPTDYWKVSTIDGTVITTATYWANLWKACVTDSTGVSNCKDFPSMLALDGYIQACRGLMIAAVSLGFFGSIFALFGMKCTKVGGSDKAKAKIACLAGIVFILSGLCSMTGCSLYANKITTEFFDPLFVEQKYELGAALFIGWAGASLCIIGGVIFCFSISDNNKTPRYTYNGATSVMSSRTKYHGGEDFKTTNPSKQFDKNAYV

Claudin-11 = biological target: T10, Claudin-11; assay: FACS, transfected HEK 293 cells
T10 construct: expressed on transiently transfected HEK 293 cells; the sheet prints only the number after Claudin-1
T10 sequence (O75508 whole entry, species assumed, looked up): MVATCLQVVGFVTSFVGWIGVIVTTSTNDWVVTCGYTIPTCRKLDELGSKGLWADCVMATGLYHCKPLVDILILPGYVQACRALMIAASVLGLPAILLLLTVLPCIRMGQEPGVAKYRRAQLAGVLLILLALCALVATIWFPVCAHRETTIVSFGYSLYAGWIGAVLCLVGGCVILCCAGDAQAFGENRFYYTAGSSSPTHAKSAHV

Claudin-12 = biological target: T11, Claudin-12; assay: FACS, transfected HEK 293 cells
T11 construct: expressed on transiently transfected HEK 293 cells; the sheet prints only the number after Claudin-1

Claudin-14 = biological target: T12, Claudin-14; assay: FACS, transfected HEK 293 cells
T12 construct: expressed on transiently transfected HEK 293 cells; the sheet prints only the number after Claudin-1

Claudin-16 = biological target: T13, Claudin-16; assay: FACS, transfected HEK 293 cells
T13 construct: expressed on transiently transfected HEK 293 cells; the sheet prints only the number after Claudin-1
T13 sequence (Q9Y5I7 1-235, species assumed, looked up): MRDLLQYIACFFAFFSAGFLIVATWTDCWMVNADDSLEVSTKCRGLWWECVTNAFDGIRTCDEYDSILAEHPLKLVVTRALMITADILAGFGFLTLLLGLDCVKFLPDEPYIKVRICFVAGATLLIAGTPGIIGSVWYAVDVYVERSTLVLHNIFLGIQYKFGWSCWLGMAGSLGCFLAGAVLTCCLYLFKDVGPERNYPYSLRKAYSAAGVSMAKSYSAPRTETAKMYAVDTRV

Claudin-17 = biological target: T14, Claudin-17; assay: FACS, transfected HEK 293 cells
T14 construct: expressed on transiently transfected HEK 293 cells; the sheet prints only the number after Claudin-1
T14 sequence (P56750 whole entry, species assumed, looked up): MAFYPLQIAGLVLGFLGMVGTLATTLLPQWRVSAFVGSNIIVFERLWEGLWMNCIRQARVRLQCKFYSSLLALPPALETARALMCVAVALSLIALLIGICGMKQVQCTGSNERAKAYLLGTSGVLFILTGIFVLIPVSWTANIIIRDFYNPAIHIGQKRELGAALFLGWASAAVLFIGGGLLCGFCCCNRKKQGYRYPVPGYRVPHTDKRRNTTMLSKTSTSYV

Claudin-19 = biological target: T15, Claudin-19; assay: FACS, transfected HEK 293 cells
T15 construct: expressed on transiently transfected HEK 293 cells; the sheet prints only the number after Claudin-1
T15 sequence (Q8N6F1 whole entry, species assumed, looked up): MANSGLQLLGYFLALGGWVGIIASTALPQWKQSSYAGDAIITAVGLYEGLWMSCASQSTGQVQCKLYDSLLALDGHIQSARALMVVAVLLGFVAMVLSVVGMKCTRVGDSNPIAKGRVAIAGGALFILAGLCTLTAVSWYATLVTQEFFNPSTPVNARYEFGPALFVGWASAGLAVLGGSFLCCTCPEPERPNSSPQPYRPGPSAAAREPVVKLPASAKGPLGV

Claudin-22 = biological target: T16, Claudin-22; assay: FACS, transfected HEK 293 cells
T16 construct: expressed on transiently transfected HEK 293 cells; the sheet prints only the number after Claudin-1

Claudin-23 = biological target: T17, Claudin-23; assay: FACS, transfected HEK 293 cells
T17 construct: expressed on transiently transfected HEK 293 cells; the sheet prints only the number after Claudin-1
T17 sequence (Q96B33 1-292, species assumed, looked up): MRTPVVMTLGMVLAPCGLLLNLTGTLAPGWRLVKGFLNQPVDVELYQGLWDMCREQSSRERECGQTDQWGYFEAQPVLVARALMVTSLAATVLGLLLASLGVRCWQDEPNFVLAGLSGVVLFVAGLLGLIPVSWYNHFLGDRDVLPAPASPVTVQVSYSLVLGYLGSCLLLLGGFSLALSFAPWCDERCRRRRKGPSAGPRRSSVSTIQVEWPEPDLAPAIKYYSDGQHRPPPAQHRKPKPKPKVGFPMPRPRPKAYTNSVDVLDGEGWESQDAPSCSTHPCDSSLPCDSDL

Claudin-34 = biological target: T18, Claudin-34; assay: FACS, transfected HEK 293 cells
T18 construct: expressed on transiently transfected HEK 293 cells; the sheet prints only the number after Claudin-1

[2] = biological target: T19, CLDN 7 expressed on HEK 293 cells (UniProt O95471 1-211, limits assumed); assay: FACS, transfected HEK 293 cells
T19 construct: whole, on cells
T19 sequence (looked up): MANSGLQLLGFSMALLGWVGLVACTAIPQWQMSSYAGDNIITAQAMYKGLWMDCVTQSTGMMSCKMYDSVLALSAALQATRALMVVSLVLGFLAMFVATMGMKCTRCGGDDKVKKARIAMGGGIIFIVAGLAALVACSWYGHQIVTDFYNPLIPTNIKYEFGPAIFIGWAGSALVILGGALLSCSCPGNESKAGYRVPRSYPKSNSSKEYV

[3] = biological target: T1, human Claudin 18.2 (CLDN18.2) expressed …; assay: FACS, HEK 293 cells expressing CLDN18.2
[4] = biological target: T1, human Claudin 18.2 (CLDN18.2) expressed …; assay: FACS, transfected HEK 293 cells, first 18.2 column
[5] = biological target: T1, human Claudin 18.2 (CLDN18.2) expressed …; assay: FACS, transfected HEK 293 cells, second 18.2 column

binding result [1]: binds
B1: 79C4 (mouse hybridoma subclone antibody) (antibody, V domains shown)
VH: EVKLEESGGGLVQPGGSMKLSCVASGFTFSNYWMNWVRQSPEKGLEWVAEIRLKSKNYATHYAESVKGRFTISRDDSIGSVYLQMNNLRAEDTGIYYCARGHYGTNYGDYWGQGTSVTVSS
VL: DIQTTQSPSSLSASLGERVTLTCRASQEISGYLSWLQQKPDGTIKRLIYAASTLDSGVPKRFSGSRSGSDYSLTINSLESEDFVDYYCLQYDSSPWTFGGGTKLEIK
notes: also remade as chimeric antibody with human IgG1 and kappa (pFUSE vectors)

binding result [1]: binds
B2: 83G3 (mouse hybridoma subclone antibody) (antibody, V domains shown)
VH: QVQLQQSGAELAKPGASVKLSCKASGFTFTSYWIHWVKQRPGQGLEWIGYIDPSNTYTKFNQKFKDKATLTADKSSSTAYMQLNSLTFEDSAVYYCATGRGFAYWGQGTLVTVSS
VL: DIVMTQSPSSLTVTAGEKVTVSCKSSQSLFNSGNQKHYLTWYQQKPGQPPKLLIYRASTRESGVPDRFTGSGSGTDFTLTIRNVQAEDLAVYYCQNDYSFPLTFGAGTKLELK
notes: also remade as chimeric antibody with human IgG1 and kappa

binding result [1]: binds
B3: 85H12 (mouse hybridoma subclone antibody) (antibody, V domains shown)
VH: EVKLEESGGGLVQPGGSMKLSCVASGFTFSNYWMNWVRQSPEKGLEWVAEIRLKSKNYATHYAESVKGRFTISRDDSIGSVYLQMNNLRAEDTGIYYCARGHYGTNYGDYWGQGTSVTVSS
VL: DIVMTQSPSSLTVTAGEKVTVSCKSSQSLFNSGNQKHYLTWYQQKPGQPPKLLIYRASTRESGVPDRFTGSGSGTDFTLTIRNVQAEDLAVYYCQNDYSFPLTFGAGTKLELK
notes: as for B2

MFI (Claudin-1): 22.8 | MFI (Claudin-2): 21.3 | MFI (Claudin-3): 23.8 | MFI (Claudin-4): 22 | MFI (Claudin-5): 20.3 | MFI (Claudin-8): 21.4 | MFI (Claudin-9): 21.8 | MFI (Claudin-10): 23 | MFI (Claudin-11): 20.9 | MFI (Claudin-12): 20.7 | MFI (Claudin-14): 21.7 | MFI (Claudin-16): 24.5 | MFI (Claudin-17): 21.8 | MFI (Claudin-19): 21 | MFI (Claudin-22): 29.1 | MFI (Claudin-23): 22 | MFI (Claudin-34): 22.3 | MFI [2]: 22.6 | binding result [2]: no binding | EC50 (read off the curve) [3]: ~0.3 µg/mL | MFI [4]: 3870 | MFI [5]: 4050
B4: ASK589-B (antibody, human IgG1, kappa, V domains shown)
VH: EVQLVESGGGLVKPGGSLRLSCAVSGFYFNRGYWICWVRQAPGKGLEWIGCIDTGSGVPYYANWAKGRFTISRHTSKTTLTLQMNSLRAEDTASYFCARNSDSIYFNIWGPGTLVTVSS
VL: DIVMTQSPSSLSASVGDRVTITCQASQSIGGYISWYQQKPGKAPKLLIYKASTLASGVPSRFSGSGSGTDFTLTISSLQPEDFATYYCQNYAGVSIYGAVFGGGTKVVIKR
notes: Humanized rabbit antibody (from Clone 46; HC5M1 with LC1M1); also called Molecule B
